Target: angiotensin-converting enzyme-2 (ACE2) with the neck domain (UniProt Q9BYF1)
Test: mass photometry; proteins measured alone, non-labelled, in solution; counts of monomer, dimer and trimer species; ACE2 at 10 nM

Which stoichiometry N does the source give for “angiotensin-converting enzyme-2 (ACE2) with the neck domain (from UniProt Q9BYF1 18-740) (receptor)” here?
The stoichiometry N was 2.
